Test: yeast display, Sf9 membrane polyspecificity reagent, FACS + sequencing; frameworks hold sequencing errors
How it was run: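 A nanobody's polyreactivity label depends on the gate it was sorted from. Yeast display cells were stained with 10% biotinylated, detergent-solubilized Sf9 membrane reagent for 1 hour at 4 °C, enriched on streptavidin microbeads and sorted by FACS. The low and high (top ~1%) gates were set on anti-HA fluorescence for expression and streptavidin fluorescence for reagent binding.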

Sequence | polyreactivity (PSR sort gate)
QVQLVESGGRLVQAGGSLRLSCAASGGIIRGYAMGWYRQAPGKEWELVATIRSSGRTNYADSVKGRFTISRDNEKNTVYFQMNSLKQEDTAVYYCAAVVRQYGFDYWGQGTQVTVSS | low polyreactivity
QVQLVESGGGLVQAGGSLRLSCAASGRNFYSYVMGWYRQAPGKERELVASIRVSGGSTYYADSVKGRFTISRDNAKNTVYLQMNSLKPEDTAVYYCAAGYRSGVSLWRFYAYYWGQGTQVTVSS | high polyreactivity
QVQLVESGGGLVQAGGSLRLSCAASGNIFYKYAMGWYRQAPGKERELVAAITWRVVRTYYADSVKGRFTISRDNAKNTVYLQMNSLKPEDTAVYYCAALSRQSGDYWGQGTQVTVSS | high polyreactivity
QVQLVESGGGLVQAGGSLRLSCAASGGIIFYYAMGWYRQAPGKERALVAAISYSGGSTYYADSVKGRFTISRDNAKNTVYLQMNSLKPEDTAVYYCAARTHYFPWPWYVWDYDSWGQGTQVTVSS | low polyreactivity
QVQLVESGGRLVQAGFSLRLSCAASGSTFRWYALGWYRQAPGIESELVAAITSGGRTYYADSVKGRFTISRDNAKNPVYLQMSSLKPEATAGYYCAAQYADRGKRDYWGQGTQVTGSS | high polyreactivity
QVQLVESGGGLVQAGGSLRLSCPASGRTSVINAMGWYRQAPGKETELVATITWSAASTYYADSVKGRFTISRDNAKNTVYLQMNSLKPEDTAVYYCATDSAQYGYDYWGQGTQVTVSS | low polyreactivity
QDQLVESGGGLVQAGGSLRLSCAASGNTLAANAMGWYRQAPGKERELVAAITYSGGSTYYADSVKGRFTISRDNAKNTVYLQMSSLKPEDTSVYYCNAPYVFSAGFDYWGQGTQVTVSS | low polyreactivity
QVQLVESGGGLVQAGGSLRLSCAASGSTLDSYTMGWYRQAPGKERELVATISTSGGSTYYADAVKGRFTISRDNAKNTVSIQMNSLKPEDTAVYYCKADAPFGPNRYNSWGQGTQVTVSS | low polyreactivity
QVQLVESGGGLVQAGGTLRLSCDASGLIFEYYAMGWYRQAPGKERELVAVINWSGASTYYADSVKGRFTISRDNAKNTVFLQMNSLKPEDTAVYYCAAGVLITGLRFDYWGQGSQVTVSS | low polyreactivity
QVQLVESGGGLVQAGGSLRLSCAASGFTFVKYAMGWYRQAPGKERELVAAISRSGGRTYYADSVKGRFTISLDNAKNTVYLQMNSLKPEDTAVYYCAADVATTHELDYWGQGTQVTVSS | high polyreactivity
QVQLVESGGGLVQAGGSLRLSCAASGSIFSVYVMGWYRQAPGKERELVAAISWSDSDTYYADSVKGRFTISRDNAKNTVYLQMNSLKPEDTAVYYCNVVNPVLYSSYEFDYWGQGTQVTVSS | high polyreactivity
QVQLVESGVALVQAAGSLRLRCAAYGSTFSYNAMGWYRQATGKERELVAAISGSGGTTYYADSVKGRFTISRDNAKNTVYLQMNSLKPEDTAVYYCAAELTRYRYFYHKRPMDYWGQGTQVTVSS | low polyreactivity
QVQLVESGGGLDQARGTLSLICAASGSIFRHYAMGWYRQAPWKERELVAAISGSGATTYYADSVKGRFTISRDNAKNTVYLQMKSLKPVDNAVYYCAARTTYITTWVYRHNYTYYYWGQGTQVTVSS | high polyreactivity
QVQMQESGGGLVQAGGSLRLSCAASGSISRYYDMGWYRQAPGKEREFVAGISGGAITYYADSVKGRFTISRDNAKNSVYLQMNSLNREDTAVYYCAADTGVYQYHSYWGQGTQVTVSS | low polyreactivity
QVQLVESGGGLVQAGGSLRLSCAASGSTLYGNVMGWYRQAPGKESELVATINRGGSTNYADSVKGRFTISRDNAKNTVYLQMNSLKPEDTAVYYCAARAFAWYYLEDYWGQGTQVTVSS | low polyreactivity
QVQLVESGGGLVQAGGSLRISCAASGRTFPCKAMGWYRQAPGKERELVATITWSSGRTHYADSVKGRFTISRDNAKNTVYLQMNSLKPEDSAVYYCAAKWIVAVVGFYYWGQGTQVTVSS | low polyreactivity
QVQLVESGGGLVQAGGSLRLSCAASGLIFFYLNDMGWYRQAPGKERELVATITSGTSTTYADSVKGRFTISRDNAKNTVYLQMNSLKPEDTAVYYCNATDVGIITVGYGHGGYYWGQGTQVTVSS | low polyreactivity
QVHLVESGGGLVQAGGSLRLSCAASGGIFFPNAMGWYRQAPWKERELVAAISWSAGSTYYADSVKGRFTISRDNAKNTVYLELNSVKPEDTAVYYCAAAGSKNTVLYGYYYWGQGTQVTVSS | low polyreactivity
QVQLVESGGGLVQAGGSLRLSCAASGSIFSYYAMGWYRQAPGKERELVAGITWSGGRTYYADSVKGRFTISRDNAKNTVYLQMNSLKPEDTAVYYCAAVQLFSRRSRYDYWGQGTQVTVSS | high polyreactivity
QVQLVSSGGGLVQAGGSLSLSCAASGRTFCINAMGWYRQAPGKERELVAAIRTGGSTYYADSVKGRFTISRDNAKNTVYLQMNSLKPEDTAVYYCAAVLYHNRKTEYTYGYWGQGTQVTVSS | high polyreactivity
QVQLVESGGGLVQAGGSLRLSCAASGRTFYYNTMGWYRQAPGKERELVAAISWRTGSTYYADSVKGRFTISRDNAKNTVYLQMNSLKPEDTAVYYCAAVLFGYPRTIGTWYDRYYYWGQGTQVTVSS | high polyreactivity
QVQLEESGGGLVQAGGSLRLSCAASYAMGWYRQAPGKERELVATITRTDRTNYADSVKGRFTISRDNAKNTVYLQMNSLKPEDTAVYYCNKVDWSAPGDSPKYGYWGQGTQVTVSS | low polyreactivity

Sequence | polyreactivity (PSR sort gate)
QVQLVESGGGLDQAGGSLRLICAASGSTFISNVMGWYRPAPGKERELVAAITRSSGRTYYADSVKGRFTISRDNAKNTVYLQMNSLKPEDTAVYYCAARPRGRGVDYWGQGTQVTVSS | high polyreactivity
QVQLVESGGGLVQAGGSLRLSCAAYSYVMGWYRQAPGKERELVAAISQSGGSTYYADSVKGRFTISRDNAKNTVYLQMNSLKPEDTAVYYCAARREPYQYNQYYSWGQGTQVTVSS | high polyreactivity
QVQLVESGGGLVQAGGSLRLSCAASGLIFENNAMGWYRQAPGKERELVAAITYSGGSTYYADSVKGRFTISRDNAKNTVYLQMNSLKPEDTAVYYCAAESYRRYGYDYWGQGTQVTVSS | high polyreactivity
QVQLVESGGGLVQAGGSLRLSCAASGLIFSYYAMGWYIQAPGKERVLVAAISGVGSTNYADSVKGRFTISRDNEKNTVYLQMNSLKPEDTAVYYCAARFVLRRDYGYWGQGTQVTVSS | high polyreactivity
QDQLGESGGGLVQAGGSLRLTCAASGFIFSNNAMGWYRPSPGKERELVAAISGSGVSTYYADSVKGRFTISRDNAKNTVYLQMNSLKPEDTAVYYCAASASLRHDYWGQGTQVTVSS | high polyreactivity
QVQLVESGGGLVQAGGSLRLSCAASGSIFWSYAMGWYRQAPGKEREFVAAITVSGGSTYYADSVKGRFTISRDNAKNTVYLQMNSLKPEDTAVFYCAARQLTAGGTDLDYWGQGTKVTVSS | low polyreactivity
QVQLVESGGGLVQAGGSLRLSCAASGRIFGANAMGWYRQAPGKERELVAAISGSGGRTYYADSVKGRFTISRDNAKNTVYLQMNSLKPEDTAVYYCAAGRPTYSRYFGFEYWGQGTQVTVSS | high polyreactivity
QVQLVESGGGLVQAGGSLRLSCAASGRTFAYYAMGWYRQAPGKERELVAAISSGGGSTYYADSVKGRFTISRDNAKNTVYLQMNRLKPEDTSVYYCNKGFEFWGQGTQVTVSS | high polyreactivity
QVQLVESGGGLVQAGGSLRLSCAASGMFGLNAMGWYRQAPGKERELVAAIRWTGSSTYYADSVKGRFTISRDNAKNTVYLQMNSLKPEDTADYYCAADFYVWGIWMEYWGQGTQVTVSS | high polyreactivity
QVQLVESGGGLVQAGGSLRLSCAASGRIFGFYAMGWYRQAPGKERELVAVISNGGGSTYYADSVKGRFTISRDNAKNTVYLQMTSLKPEDTAVYYCAVALKYPRRYYYWGQGTQVTVSS | high polyreactivity
QVQLVESGGGLVQSGGSLRLSCAASGRIFWYNAMRWYSQAPGKDRELVARITRGTRTYYADSVKGRFTISRDNAKNTVYLQMNSLKPEDTAVYYCRLQFSYTPHYDYWGQGTQVTVSS | high polyreactivity
QVQLVESGGGLFQAGGTLRLSCASSGLIFSRYAMGWYRQSPGKEWELVAGISTSGGRTYYADSVKGRFTISRYNAKNTVYFQMNSLKPEDTAVYYCAAQFKYRQINSYLLGDYWGQGTQVTVSS | high polyreactivity
QVQLVESGGGLVQAGGSLRLSCAASGYTFYWNVMGWYRQAPGKERELVAVIDWSGGSTHYADSVKGRFTISRDNAKNTVYLQMNSLKPEDTAVYYCAAESVYTWYYQDDDDYWGQGTQVTVSS | low polyreactivity
QVQLVESGGGLVQAGGSLRLSCAASGSTFLDNAMGWYIQAPGKERELVAAITQSGSSTYYPDSVKGRFTISRDTAKNTVYLQMNSLKPEATAVYYCAADVPNISFDYWGQGTQVTVSS | low polyreactivity
QVQLVESGGGLVQAGGSLRLSCAASGSILPTNAMGWYRPAPGKERELVASITYNGGRTSYADSVKGRFTISRDNAKNTVYLQMNSLKPEDTAVYYCAARVWYQGYKSMGYWGQGTQVTVSS | high polyreactivity
QVQLVESGGGLVQAGGRLRLSCAASGFIFAKYAMGWYRQAPGKERELVAAITSSGVSTYYADSVKGRFTISRDNAKNTVYLQMNSLKPADTAVYYCNARERYSYWGQGTQVTVSS | high polyreactivity
QVQMQESGGGLVQAGGSLRLSCAASCTISQEDWMGWYRQAPGKEREFVAAIGLGSNTNYADSLKGRFTISRDNAKNTVYLQMNSLKPEDTAVYYCAVSVWQYSDHVFRGQGTQVTVSS | low polyreactivity
QVQLVESGGGLVQAGGSLRLSCAASGNTFSYYAMGWYRQAPGKERELVAAISWRGGSTYYADSVKGRFTISRDNAKNTVYLQMNSLKPEDTAVYYCAADLYWASLWYVGAAYGYEYWGQGTQVTVSS | low polyreactivity
QVQLEESGGGLVQAGGSLRLSCAASGGTFTNYAMGWYRQAPGTERELVAAITDSGATTYYADSVKGRFTISRDNAKNTVYLQMNRLKPEDNAVYYCNAELDLYTDFDYWGQGTQVTESS | low polyreactivity
QVQLVESGGGLVQAGGRLRLSCAASGSIFVPNAMGWYRQALGKDRELVAAITYSGVDTYYADSVMGRFTISRDNAKNTVYLQMNSLKPEDTAVYYCAADNGRVGYDYWGQGTQVSVSS | low polyreactivity
QVQLVESGGGLVQAGGSLRLSCGASGFTFQFYDRGGYRQAPGKEREFVATITWRAGSTYSADSVKGRFTISRDNAKNTVYLQMNSLKPEDTAVYYCNADYYRHSLDYDYVGYDYWGQGTQVTVSS | low polyreactivity

From the nanobody polyreactivity screen of Harvey et al. (2022)
